Data as given in the array DNA melting data of Ke et al..

Assay: melting temperature; melt of duplexes
Settings: sodium 0.0675 M; strand 1 µM

| Substance | Tm [°C] |
| --- | --- |
| CGACGTGCAATATGTGCTG+CAGCACATCTCGCACGTCG ((((((((.(.((((((((+)))))))).).)))))))) | 48.4 |
| CGACGTGCAATATGTGCTG+CAGCACATCTTGCACGTCG ((((((((((.((((((((+)))))))).)))))))))) | 54.8 |
| CGACGTGCAATATGTGCTG+CAGCACATGACGCACGTCG ((((((((...((((((((+))))))))...)))))))) | 48.2 |
| CGACGTGCAATATGTGCTG+CAGCACATGCAGCACGTCG ((((((((...((((((((+))))))))...)))))))) | 52.1 |
| CGACGTGCAATATGTGCTG+CAGCACATGCTGCACGTCG (((((((((..((((((((+))))))))..))))))))) | 50.7 |
| CGACGTGCAATATGTGCTG+CAGCACATGGAGCACGTCG ((((((((...((((((((+))))))))...)))))))) | 51 |
| CGACGTGCAATATGTGCTG+CAGCACATGGCGCACGTCG ((((((((...((((((((+))))))))...)))))))) | 50.5 |
| CGACGTGCAATATGTGCTG+CAGCACATGTAGCACGTCG ((((((((.(.((((((((+)))))))).).)))))))) | 52 |
| CGACGTGCAATATGTGCTG+CAGCACATGTCGCACGTCG ((((((((.(.((((((((+)))))))).).)))))))) | 51.5 |
| CGACGTGCAATATGTGCTG+CAGCACATGTTGCACGTCG ((((((((((.((((((((+)))))))).)))))))))) | 58.4 |
| CGACGTGCAATATGTGCTG+CAGCACATTCGGCACGTCG ((((((((...((((((((+))))))))...)))))))) | 49.5 |
| CGACGTGCAATATGTGCTG+CAGCACATTGAGCACGTCG ((((((((...((((((((+))))))))...)))))))) | 50.4 |
| CGACGTGCAATATGTGCTG+CAGCACATTGCGCACGTCG ((((((((...((((((((+))))))))...)))))))) | 50 |
| CGACGTGCAATATGTGCTG+CAGCACATTTCGCACGTCG ((((((((.(.((((((((+)))))))).).)))))))) | 50.1 |
| CGACGTGCACAATGTGCTG+CAGCACATAAAGCACGTCG ((((((((...((((((((+))))))))...)))))))) | 47.4 |
| CGACGTGCACAATGTGCTG+CAGCACATAACGCACGTCG ((((((((...((((((((+))))))))...)))))))) | 45.3 |
| CGACGTGCACAATGTGCTG+CAGCACATAAGGCACGTCG ((((((((...((((((((+))))))))...)))))))) | 46.8 |
| CGACGTGCACAATGTGCTG+CAGCACATACAGCACGTCG ((((((((...((((((((+))))))))...)))))))) | 45.4 |
| CGACGTGCACAATGTGCTG+CAGCACATACCGCACGTCG ((((((((...((((((((+))))))))...)))))))) | 44.6 |
| CGACGTGCACAATGTGCTG+CAGCACATACGGCACGTCG ((((((((...((((((((+))))))))...)))))))) | 44.7 |
| CGACGTGCACAATGTGCTG+CAGCACATAGTGCACGTCG ((((((((((.((((((((+)))))))).)))))))))) | 53.5 |
| CGACGTGCACAATGTGCTG+CAGCACATATCGCACGTCG ((((((((...((((((((+))))))))...)))))))) | 44.6 |
| CGACGTGCACAATGTGCTG+CAGCACATATGGCACGTCG ((((((((...((((((((+))))))))...)))))))) | 47.7 |
| CGACGTGCACAATGTGCTG+CAGCACATATTGCACGTCG (((((((((..((((((((+))))))))..))))))))) | 48 |

| Substance | Tm [°C] |
| --- | --- |
| CGACGTGCACAATGTGCTG+CAGCACATCACGCACGTCG ((((((((...((((((((+))))))))...)))))))) | 45.3 |
| CGACGTGCACAATGTGCTG+CAGCACATCCGGCACGTCG ((((((((...((((((((+))))))))...)))))))) | 46.1 |
| CGACGTGCACAATGTGCTG+CAGCACATCGAGCACGTCG ((((((((.(.((((((((+)))))))).).)))))))) | 48.6 |
| CGACGTGCACAATGTGCTG+CAGCACATCGTGCACGTCG ((((((((((.((((((((+)))))))).)))))))))) | 53 |
| CGACGTGCACAATGTGCTG+CAGCACATCTCGCACGTCG ((((((((...((((((((+))))))))...)))))))) | 45.1 |
| CGACGTGCACAATGTGCTG+CAGCACATCTGGCACGTCG ((((((((...((((((((+))))))))...)))))))) | 47.5 |
| CGACGTGCACAATGTGCTG+CAGCACATGAAGCACGTCG ((((((((...((((((((+))))))))...)))))))) | 49.9 |
| CGACGTGCACAATGTGCTG+CAGCACATGACGCACGTCG ((((((((...((((((((+))))))))...)))))))) | 48.2 |
| CGACGTGCACAATGTGCTG+CAGCACATGGAGCACGTCG ((((((((.(.((((((((+)))))))).).)))))))) | 52.5 |
| CGACGTGCACAATGTGCTG+CAGCACATGGGGCACGTCG ((((((((.(.((((((((+)))))))).).)))))))) | 55.2 |
| CGACGTGCACAATGTGCTG+CAGCACATGTGGCACGTCG ((((((((...((((((((+))))))))...)))))))) | 51.2 |
| CGACGTGCACAATGTGCTG+CAGCACATTAGGCACGTCG ((((((((..(((((((((+)))))))))..)))))))) | 50.6 |
| CGACGTGCACAATGTGCTG+CAGCACATTGGGCACGTCG ((((((((.((((((((((+)))))))))).)))))))) | 61.2 |
| CGACGTGCACAATGTGCTG+CAGCACATTGTGCACGTCG (((((((((((((((((((+))))))))))))))))))) | 63 |
| CGACGTGCACAATGTGCTG+CAGCACATTTAGCACGTCG ((((((((..(((((((((+)))))))))..)))))))) | 48.3 |
| CGACGTGCACAATGTGCTG+CAGCACATTTGGCACGTCG ((((((((..(((((((((+)))))))))..)))))))) | 51.2 |
| CGACGTGCACAATGTGCTG+CAGCACATTTTGCACGTCG (((((((((.(((((((((+))))))))).))))))))) | 54 |
| CGACGTGCACCATGTGCTG+CAGCACATAACGCACGTCG ((((((((...((((((((+))))))))...)))))))) | 43.8 |
| CGACGTGCACCATGTGCTG+CAGCACATAAGGCACGTCG ((((((((...((((((((+))))))))...)))))))) | 44.1 |
| CGACGTGCACCATGTGCTG+CAGCACATACGGCACGTCG ((((((((...((((((((+))))))))...)))))))) | 42.9 |
| CGACGTGCACCATGTGCTG+CAGCACATACTGCACGTCG (((((((((..((((((((+))))))))..))))))))) | 44.9 |
| CGACGTGCACCATGTGCTG+CAGCACATCAAGCACGTCG ((((((((...((((((((+))))))))...)))))))) | 42.8 |
| CGACGTGCACCATGTGCTG+CAGCACATCCAGCACGTCG ((((((((...((((((((+))))))))...)))))))) | 42.2 |
| CGACGTGCACCATGTGCTG+CAGCACATCCGGCACGTCG ((((((((...((((((((+))))))))...)))))))) | 42.7 |

| Substance | Tm [°C] |
| --- | --- |
| CGACGTGCACCATGTGCTG+CAGCACATCGTGCACGTCG ((((((((((.((((((((+)))))))).)))))))))) | 49.6 |
| CGACGTGCACCATGTGCTG+CAGCACATCTGGCACGTCG ((((((((...((((((((+))))))))...)))))))) | 43.7 |
| CGACGTGCACCATGTGCTG+CAGCACATGAAGCACGTCG ((((((((..(((((((((+)))))))))..)))))))) | 51 |
| CGACGTGCACCATGTGCTG+CAGCACATGCAGCACGTCG ((((((((..(((((((((+)))))))))..)))))))) | 50.4 |
| CGACGTGCACCATGTGCTG+CAGCACATGCCGCACGTCG ((((((((..(((((((((+)))))))))..)))))))) | 48.6 |
| CGACGTGCACCATGTGCTG+CAGCACATGGAGCACGTCG ((((((((.((((((((((+)))))))))).)))))))) | 58.8 |
| CGACGTGCACCATGTGCTG+CAGCACATTCGGCACGTCG ((((((((...((((((((+))))))))...)))))))) | 42.6 |
| CGACGTGCACCATGTGCTG+CAGCACATTGAGCACGTCG ((((((((.(.((((((((+)))))))).).)))))))) | 47.2 |
| CGACGTGCACCATGTGCTG+CAGCACATTGCGCACGTCG ((((((((.(.((((((((+)))))))).).)))))))) | 46.9 |
| CGACGTGCACCATGTGCTG+CAGCACATTTAGCACGTCG ((((((((...((((((((+))))))))...)))))))) | 42.2 |
| CGACGTGCACCATGTGCTG+CAGCACATTTTGCACGTCG (((((((((..((((((((+))))))))..))))))))) | 46.7 |
| CGACGTGCACGATGTGCTG+CAGCACATAAAGCACGTCG ((((((((...((((((((+))))))))...)))))))) | 46.8 |
| CGACGTGCACGATGTGCTG+CAGCACATAGGGCACGTCG ((((((((.(.((((((((+)))))))).).)))))))) | 54.9 |
| CGACGTGCACGATGTGCTG+CAGCACATATAGCACGTCG ((((((((...((((((((+))))))))...)))))))) | 45.6 |
| CGACGTGCACGATGTGCTG+CAGCACATATGGCACGTCG ((((((((...((((((((+))))))))...)))))))) | 46.9 |
| CGACGTGCACGATGTGCTG+CAGCACATCAAGCACGTCG ((((((((..(((((((((+)))))))))..)))))))) | 51.2 |
| CGACGTGCACGATGTGCTG+CAGCACATCACGCACGTCG ((((((((..(((((((((+)))))))))..)))))))) | 51.9 |
| CGACGTGCACGATGTGCTG+CAGCACATCAGGCACGTCG ((((((((..(((((((((+)))))))))..)))))))) | 53.4 |
| CGACGTGCACGATGTGCTG+CAGCACATCCAGCACGTCG ((((((((..(((((((((+)))))))))..)))))))) | 50.6 |
| CGACGTGCACGATGTGCTG+CAGCACATCCGGCACGTCG ((((((((..(((((((((+)))))))))..)))))))) | 52.4 |
| CGACGTGCACGATGTGCTG+CAGCACATCGGGCACGTCG ((((((((.((((((((((+)))))))))).)))))))) | 63.8 |
| CGACGTGCACGATGTGCTG+CAGCACATCGTGCACGTCG (((((((((((((((((((+))))))))))))))))))) | 65.4 |
| CGACGTGCACGATGTGCTG+CAGCACATCTAGCACGTCG ((((((((..(((((((((+)))))))))..)))))))) | 51.3 |
| CGACGTGCACGATGTGCTG+CAGCACATCTCGCACGTCG ((((((((..(((((((((+)))))))))..)))))))) | 50.6 |
